Reference: patent US20210095265A1 (WISCONSIN ALUMNI RESEARCH FOUNDATION, published 2021)

T1: Saro_2873 S15A (subunit of BaeA variants 3:S15A and 2:S14A/3:S15A) (Novosphingobium aromaticivorans)
T1 chain: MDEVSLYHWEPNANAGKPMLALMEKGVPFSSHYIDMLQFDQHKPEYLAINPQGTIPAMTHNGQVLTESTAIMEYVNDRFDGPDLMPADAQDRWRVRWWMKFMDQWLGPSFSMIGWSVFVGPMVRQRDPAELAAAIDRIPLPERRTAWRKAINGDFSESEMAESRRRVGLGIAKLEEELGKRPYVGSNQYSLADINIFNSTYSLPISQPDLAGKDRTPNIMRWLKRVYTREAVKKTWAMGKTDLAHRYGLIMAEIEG

T2: Saro_2873 N14A (subunit of BaeA variant 3:N14A) (Novosphingobium aromaticivorans)
T2 construct: This subunit is untagged; the tag is on Saro_2872
T2 chain: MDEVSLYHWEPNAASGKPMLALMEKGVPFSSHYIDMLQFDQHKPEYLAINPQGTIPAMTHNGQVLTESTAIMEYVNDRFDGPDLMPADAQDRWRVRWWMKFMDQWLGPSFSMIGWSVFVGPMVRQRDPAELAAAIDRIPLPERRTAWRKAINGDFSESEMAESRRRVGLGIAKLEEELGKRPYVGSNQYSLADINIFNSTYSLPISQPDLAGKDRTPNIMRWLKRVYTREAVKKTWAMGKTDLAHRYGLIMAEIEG

T3: Saro_2873 polypeptide made by cell-free synthesis in its native form
T3 chain: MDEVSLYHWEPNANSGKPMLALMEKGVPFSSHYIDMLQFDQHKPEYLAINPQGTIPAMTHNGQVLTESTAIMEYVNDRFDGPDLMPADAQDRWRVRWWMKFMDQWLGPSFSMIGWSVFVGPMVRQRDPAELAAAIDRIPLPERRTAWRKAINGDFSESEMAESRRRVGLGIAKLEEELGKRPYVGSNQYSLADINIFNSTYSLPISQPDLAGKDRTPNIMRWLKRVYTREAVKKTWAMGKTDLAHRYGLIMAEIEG

T4: Saro_2873 polypeptide from Novosphingobium aromaticivorans (subunit of BaeA), co-expressed with Saro_2872 in … (Novosphingobium aromaticivorans)
T4 construct: Co-expressed with Saro_2872; also called Saro_2873 subunit; second polypeptide of BaeA
T4 chain: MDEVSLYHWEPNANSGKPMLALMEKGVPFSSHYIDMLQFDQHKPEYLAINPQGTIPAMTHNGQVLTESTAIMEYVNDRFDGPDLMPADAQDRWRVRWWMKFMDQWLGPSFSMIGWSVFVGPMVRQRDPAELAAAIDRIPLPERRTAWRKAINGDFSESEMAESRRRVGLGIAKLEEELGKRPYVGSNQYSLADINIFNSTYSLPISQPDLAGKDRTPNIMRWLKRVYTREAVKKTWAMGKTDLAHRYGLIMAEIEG


How the values were obtained:
[1] = molecular target: T1, Saro_2873 S15A (subunit of BaeA …); experiment: gel permeation chromatography
[2] = molecular target: T2, Saro_2873 N14A (subunit of BaeA variant …); experiment: gel permeation chromatography
[3] = molecular target: T3, Saro_2873 polypeptide made by cell-free …
[4] = molecular target: T4, Saro_2873 polypeptide from …; experiment: gel permeation chromatography
[5] = molecular target: the molecule itself; experiment: X-ray crystal structures (pdb 5uuo, 5uun); two copies of the protein per asymmetric unit
Description: Diffraction data were obtained at the GM/CA beam-line at Argonne National Laboratory with an Eiger 16M detector (Casanas et al. 2016). Data were collected on the ammonium acetate and ammonium sulfate crystal forms using 1.033 Å (for 1.45 Å resolution) or 0.7749 Å (for 1.25 Å resolution) X-rays, respectively. Diffraction data were reduced using XDS (Kabsch 2010). Both crystals belonged to space group P2₁2₁2₁ with a predicted solvent content of 60%. The structure was solved by molecular replacement with Phaser (McCoy et al. 2007) in the Phenix suite (Adams et al. 2010), using a search model based on PDB ID 3C8E:A (ecYghU (Stourman et al. 2011)) modified with phenix.sculptor (Bunkóczi et al. 2011), based on primary sequence alignment. […] Phenix.refine (Afonine et al. 2012) and COOT (Emsley et al. 2004) were alternatively used to refine the structure and fit the model to electron density maps.

binding result [1]	binding result [2]	binding result [4]	Binder	conversion of racemic MPHPV into GS-HPV and guaiacol (HPLC) [3]	binding result [5]
binds	binds	–	Saro_2872 polypeptide from Novosphingobium aromaticivorans (subunit of BaeA), co-expressed with Saro_2873 in E. coli (enzyme, Co-expressed with Saro_2873 from one pVP302K vector; In the H2872 construct Saro_2872 lacks its native start codon; also called Saro_2872 subunit; first polypeptide of BaeA) MSALLYHGEPNGASLTVLAALAETGLDIECRRIDLLAGERHSLPGIVDPVALDLSIEGEGPVLVIDGEAMTESVFLAQYLDEAAGGVGLQPTDAYARWEMMMWCRQITERLSPAAALLGNLATSQSAIAAIPAEDFAILAARIVSDDLRERWQALNDDAVNAAQVADSETKVAAAVDRCEKQLGDGREWLMGTFSIADLVTYSWLAGMEPLRPAAFADAPLVKAWLARTAARPCVQAALARATISEPLRAWAPGPEINRWG	half of the MPHPV was converted into GS-HPV and guaiacol	–
binds	–	binds	Saro_2872 S14A (subunit of BaeA variants 2:S14A and 2:S14A/3:S15A) (enzyme, The N-terminal His8-tag and Tev site are on this subunit, and its native start codon is missing; also called H2872(S14A)) MSALLYHGEPNGAALTVLAALAETGLDIECRRIDLLAGERHSLPGIVDPVALDLSIEGEGPVLVIDGEAMTESVFLAQYLDEAAGGVGLQPTDAYARWEMMMWCRQITERLSPAAALLGNLATSQSAIAAIPAEDFAILAARIVSDDLRERWQALNDDAVNAAQVADSETKVAAAVDRCEKQLGDGREWLMGTFSIADLVTYSWLAGMEPLRPAAFADAPLVKAWLARTAARPCVQAALARATISEPLRAWAPGPEINRWG	–	–
–	–	–	recombinant NaGSTNu (Nu-class glutathione-S-transferase of Novosphingobium aromaticivorans DSM 12444, Saro_2595), one subunit (enzyme, also called Saro_2595 product; pdb 5uuo) SAIAGMSSEYVPPKVWKWDKANGGAFASVNRPVAGPTSERELPVGKHPFQVYSLGTPNGQKATIMLEELLQLGFSEAEYDAWLIKIFEGDQFTSGFVDINPNSKIPAMVDRSGPEPFRVFESGAILMHLAEKFGVFLPTSGPARAECLSWLFWQVGSAPFIGGGFGHFYNYAPIKIEYAIDRYAMETKRLFDVANRRLAESRYLAGDEYTIADLATYTWFGNIYRGEAYGEAATFLSMHEYEHVGRWVGEIDARPGVLRGRLVNSSKGLAERHDASDFDALPPESLQAIVKGF	–	binds
